These are literature values, as cited in publication PMC8364556.

For this data set, the target named is IL-10R complex (Homo sapiens) (UniProt Q13651).
Sequence of IL-10R complex (Homo sapiens) (Q13651 22-235, chain 1 of 2): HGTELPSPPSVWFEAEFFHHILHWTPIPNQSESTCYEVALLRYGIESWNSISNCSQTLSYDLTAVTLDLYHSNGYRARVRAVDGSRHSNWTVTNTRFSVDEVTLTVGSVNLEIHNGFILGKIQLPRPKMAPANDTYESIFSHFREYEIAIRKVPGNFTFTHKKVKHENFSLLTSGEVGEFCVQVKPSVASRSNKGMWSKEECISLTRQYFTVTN
Sequence of IL-10R complex (Homo sapiens) (Q08334 20-220, chain 2 of 2, further chain): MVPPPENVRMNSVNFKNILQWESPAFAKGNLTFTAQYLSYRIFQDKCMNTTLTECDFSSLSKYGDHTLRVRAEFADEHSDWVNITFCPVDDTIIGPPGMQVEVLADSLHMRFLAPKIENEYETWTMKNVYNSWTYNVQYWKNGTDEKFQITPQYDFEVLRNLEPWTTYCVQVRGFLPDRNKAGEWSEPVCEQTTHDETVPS

Sequence of IL-10 (P22301 19-178): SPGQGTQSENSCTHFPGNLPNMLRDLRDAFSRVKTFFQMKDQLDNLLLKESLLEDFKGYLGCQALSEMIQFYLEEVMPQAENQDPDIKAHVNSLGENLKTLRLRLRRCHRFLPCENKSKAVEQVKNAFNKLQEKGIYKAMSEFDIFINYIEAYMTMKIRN

IL-10 (from UniProt P22301): the Kd was 0.56 nM.
